Results taken from article doi:10.1101/270843.
Read-outs that look alike come from different tables or passages of the source.

Legend:
Test in all cases: fluorescence anisotropy
SAMHD1 WT [1] = biological target: T1, SAMHD1 WT (UniProt Q9Y3Z3 1-626)
SAMHD1 T592A [2] = biological target: T2, SAMHD1 T592A (UniProt Q9Y3Z3 1-626, T592A)
SAMHD1 WT [3] = biological target: T1, SAMHD1 WT; remark: listed apart in the source
SAMHD1 T592A [4] = biological target: T2, SAMHD1 T592A; remark: listed apart in the source
SAMHD1 WT [5] = biological target: T1, SAMHD1 WT; remark: listed apart in the source

T1 sequence (Q9Y3Z3 whole entry): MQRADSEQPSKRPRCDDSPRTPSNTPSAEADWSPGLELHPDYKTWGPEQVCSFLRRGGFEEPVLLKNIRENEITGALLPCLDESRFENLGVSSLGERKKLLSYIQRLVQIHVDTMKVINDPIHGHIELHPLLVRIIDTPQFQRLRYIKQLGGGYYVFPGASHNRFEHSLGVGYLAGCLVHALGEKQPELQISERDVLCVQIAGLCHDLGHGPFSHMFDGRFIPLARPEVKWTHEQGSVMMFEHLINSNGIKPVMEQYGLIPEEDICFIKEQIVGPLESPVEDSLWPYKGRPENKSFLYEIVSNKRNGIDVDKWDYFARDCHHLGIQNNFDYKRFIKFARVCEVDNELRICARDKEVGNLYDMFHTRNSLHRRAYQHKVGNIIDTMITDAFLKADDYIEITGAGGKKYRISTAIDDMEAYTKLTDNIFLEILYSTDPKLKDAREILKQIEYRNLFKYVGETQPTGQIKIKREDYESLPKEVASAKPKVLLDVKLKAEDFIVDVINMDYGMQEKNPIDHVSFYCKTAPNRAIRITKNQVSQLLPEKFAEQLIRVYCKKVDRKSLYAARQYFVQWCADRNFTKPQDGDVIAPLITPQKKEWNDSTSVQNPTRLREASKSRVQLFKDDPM
T2 sequence (Q9Y3Z3 whole entry T592A): as the sequence (Q9Y3Z3 whole entry) above, with T592A counted along it

Binder	Kd (SAMHD1 WT [1])	binding result (SAMHD1 T592A [2])	Kd (SAMHD1 WT [3])	binding result (SAMHD1 T592A [4])	binding result (SAMHD1 WT [5])
HIV-1 LTR 90-mer (ssDNA) DNA: AGCAGTGGCGCCCGAACAGGGACTTGAAAGCGAAAGTAAAGCCAGAGGAGATCTCTCGACGCAGGACTCGGCTTGCTGAAGCGCGCACGG	93 ± 8 nM	no binding	242 ± 51 nM	–	–
Scrambled DNA 90-mer (ssDNA) DNA: ACTAGCTCAAGCGGGGGACACCCAGGTGTCTCCAACAGTCCGTAGATCGGACGGAGAAGAGGGGACCCCGCTAATGAGCGTGAGCAGAGA	–	–	–	no binding	no binding
